Key:
angiopoietin-2 (Ang2) [1] = molecular target: T1, angiopoietin-2 (Ang2) (human, UniProt O15123 68-496, limits assumed); test: ELISA, MRD-MBP fusions on plate-bound rhAng2, anti-MBP detection
T1 construct: Plain and biotinylated Ang2 are kept as one molecule; also called rhAng2; recombinant Ang2
T1 sequence (looked up): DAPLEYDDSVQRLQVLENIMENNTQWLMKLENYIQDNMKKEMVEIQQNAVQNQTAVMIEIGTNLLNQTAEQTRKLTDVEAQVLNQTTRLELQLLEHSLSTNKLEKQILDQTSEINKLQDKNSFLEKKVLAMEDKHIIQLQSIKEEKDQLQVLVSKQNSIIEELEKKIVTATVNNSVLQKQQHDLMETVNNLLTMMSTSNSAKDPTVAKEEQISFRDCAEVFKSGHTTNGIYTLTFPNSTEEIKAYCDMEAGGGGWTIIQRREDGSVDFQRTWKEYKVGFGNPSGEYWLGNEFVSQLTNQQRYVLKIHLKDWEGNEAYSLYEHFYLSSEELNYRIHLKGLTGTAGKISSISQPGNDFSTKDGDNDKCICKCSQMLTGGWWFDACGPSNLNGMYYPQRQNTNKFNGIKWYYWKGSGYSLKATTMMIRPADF
Procedure: (§1) MBP fusion proteins were serially diluted in Blocking buffer and added to wells for 2 hours at RT. After washing (8×300 μl wash buffer), samples were treated with HRP-mouse anti MBP mAb (NEB, cat # E8038S), diluted 1:4000 in Blocking buffer. After incubation for 1 hour at RT, wells were washed (8×300 μl wash buffer) prior to receiving 100 μl of TMB substrate (KPL Laboratories). Color development was stopped with 100 μl of H₂SO₄, and absorbance was read at 450 nm.
(§2) Bound fusion proteins were detected with anti-MBP mAb. Assayed proteins represent mutational variants of the sequence […] […] (L17D) (SEQ ID NO:107). In this series, the motif MDD within L17D was mutated at the first D to all other possible amino acids (except cysteine). Other MRDs tested were “Lm32 KtoS” and a dimer of Lm32 (2×Lm32).

angiopoietin-2 (Ang2) [2] = molecular target: T1, angiopoietin-2 (Ang2); test: ELISA on rhAng2-coated wells, MRD-MBP fusion, anti-MBP detection; EC50 by 4 parameter fit
Procedure: as §1, §2

- fold higher affinity than L17D or Lm32 KtoS (angiopoietin-2 (Ang2) [1]): > 10 fold
- EC50 (angiopoietin-2 (Ang2) [2]): 5 pM
B1: 2×Lm32-MBP fusion (other, not shown: small tags and cut ends)
peptide: PGKGGGSMGAQTNFMPMDNDELLLYEQFILQQGLEGGGSMGAQTNFMPMDNDELLLYEQFILQQGLE
notes: also called Lm32 dimer
